B1: Endoglin (Homo sapiens), P17813 (parent)
chain: MDRGTLPLAVALLLASCSLSPTSLAETVHCDLQPVGPERGEVTYTTSQVSKGCVAQAPNAILEVHVLFLEFPTGPSQLELTLQASKQNGTWPREVLLVLSVNSSVFLHLQALGIPLHLAYNSSLVTFQEPPGVNTTELPSFPKTQILEWAAERGPITSAAELNDPQSILLRLGQAQGSLSFCMLEASQDMGRTLEWRPRTPALVRGCHLEGVAGHKEAHILRVLPGHSAGPRTVTVKVELSCAPGDLDAVLILQGPPYVSWLIDANHNMQIWTTGEYSFKIFPEKNIRGFKLPDTPQGLLGEARMLNASIVASFVELPLASIVSLHASSCGGRLQTSPAPIQTTPPKDTCSPELLMSLIQTKCADDAMTLVLKKELVAHLKCTITGLTFWDPSCEAEDRGDKFVLRSAYSSCGMQVSASMISNEAVVNILSSSSPQRKKVHCLNMDSLSFQLGLYLSPHFLQASNTIEPGQQSFVQVRVSPSVSEFLLQLDSCHLDLGPEGGTVELIQGRAAKGNCVSLLSPSPEGDPRFSFLLHFYTVPIPKTGTLSCTVALRPKTGSQDQEVHRTVFMRLNIISPDLSGCTSKGLVLPAVLGITFGAFLIGALLTAALWYIYSHTRSPSKREPVVAVAAPASSESSSTNHSIGSTQSTPCSTSSMA

Variants of: B1
Conditions: with arrb2_human ARRB2, P32121
Sequence of arrb2_human ARRB2, P32121 (P32121 whole entry): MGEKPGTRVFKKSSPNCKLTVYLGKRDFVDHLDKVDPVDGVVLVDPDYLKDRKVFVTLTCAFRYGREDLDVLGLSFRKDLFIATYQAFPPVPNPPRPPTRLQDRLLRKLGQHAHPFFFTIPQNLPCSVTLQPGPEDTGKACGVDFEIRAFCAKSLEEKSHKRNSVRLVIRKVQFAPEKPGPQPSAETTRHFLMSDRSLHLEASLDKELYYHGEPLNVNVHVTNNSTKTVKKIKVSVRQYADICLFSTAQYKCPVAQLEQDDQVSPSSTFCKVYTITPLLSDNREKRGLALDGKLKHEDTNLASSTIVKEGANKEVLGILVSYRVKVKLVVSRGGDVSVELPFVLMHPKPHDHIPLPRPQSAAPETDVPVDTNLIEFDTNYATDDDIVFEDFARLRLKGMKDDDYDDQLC

| effect of a mutation on the interaction | Variant |
| --- | --- |
| disrupting interaction | T650A |

— IntAct's records for PubMed 22940691
